Experimental data as given in the NTF2 design screens of Basanta et al. (2020).

Test: protease stability score; higher = more stable; yeast display proteolysis, trypsin and chymotrypsin;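 note: relative to predicted unfolded state with 0 unfolded-like and 1 meaning tenfold more protease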

Sequence	protease stability score
DDLEREAEEFHRLMHKSVRTGDEKLIEEMFDPNVRLDINGREMHGRHDVVELERRVDHSEWHIEDIRVVGEWADIRGELVIQVGDKEHIYKTRLIVLKIDGKWRTTEMHVR	0.731
SEEEEVIDEAIHILEKHMQTGDWRVLRELADPNMRVHVNGRDLHGREQYIRWIEFLLKRVPNLKLDHFVLDHQHVVNGVAHLEGRLTYTINGVIHKTRTHFHIFKFDGQWRLESQSER	0.951
DEMEREVEKWVRIYLHALRTGDERILENMVDPEARTHINGRHDHGRDSLHKILKEMGFDHMHVEIRDVRVVNGQIHLEEIIRVDVDGRRITITVEVVIVKIDGRWIVKSFHIR	1.17
DEDRRHADEVLELFSEAFLTGNEEEMRKLADPHVRIDFNGRLKIGMETYKEEMDRFDHTEMRLESKHVHVFDGRVRIDGRLRIILRIGDKEIRHDHQVDILITKVDGRWIIKSMHIE	2.53
SQEEEIVLHISQRLLRALSTGNEKEFEELLDPNARVSEIQGDKSYSHHGREEFLIFMREWFEKMGIKHFHIEHIDVQGNWVRVRGRITFNGREHDVNILILVIDGRVRSFTIEIK	1.57
DDSDQANKIMLEVLRRKLDTGDEDSIRKLADPHARIVIGDKTIHGMDEHTNELRHMLELWGVDRVELHIRHVEKQGDKLRVDGELHFNGVSVRVIFLHEKINGRWFMRHTEIR	0.984
NEEEHFMKEALEIWLHFFRTGDERDIQREFDPNARFEFENHTSHGRESVRELLTRLFHDLGINHVQFESIRVQGDKVEIHGHFFVDGRRYDFEMNSVKINGRWLNHTIRLR	1.12
DETEEDARHFVELWRRDMITGDEDRIKEMADPNVRVIIGDKNLHGREDMTEVLRHLRIHRVNVHSIHVQGDWVHITTEVDGRIGDKRHELEVHILTRKVNGRWQLQTLEIG	1.12
DDEKKHALEVVRKYFRAFLTGDEDESFELMDPRVKVDINGRDIHGWEEYRKWMEEIRIHDHRVKEEHFRVYDGRLIIIIRGELNGEINGRRFEFEFNIIIVVAKVDGQWRTESFKMEIH	1.31
DKEERYLEIAVNVIRHQLETGNEEDLLRNIDPDTRLFIDGRLFHGWETAHYLLRKVKNARIEIRSVHLIGDKIHMDTELIVNGVLRETEITARKVDGQWTWHHIRIE	1.39
SEVEEEMTRIADILLRVTKTGDWEEMRDLIDPDARMIIDIDGREHINVGREDLARSLKRLRDHLGVKVWDYHHISVIGDKIHIETQQRFNGQDVTTRNEWTVINGKLKEMRLIIH	2.02
DEQERAYELALRTIEHDLRTGDEKSLQENADPNTRLLVGDKELVGWELFIKLMREIRIRHIEVRHMEVQGNKLIFDGKVDGEIGDKRVEYETEIILEKVDGQWRIKEKRLH	0.862
HETKHLVDKFIELFKHNLETGDWDRLLELADPRTRVHVGDKTLIGMHEFRELHLRLIEKHGIKLNYYVHEVHVQGDKAHVDNEREEDYNGRVVSFRIRMHVEKFDGRWYLTRIEFN	1.33
TEDIEHMIKVVEIFLRAVTTGNEDEMKYLMDPRMRLVVGDKIHHGWEEIWKFLEHIREERDKVHTKDTKVYNGRMDINSRVSSTIHFNGVRIEIDHEVHFHIKKINGRWFIEEIRIQ	1.3
SDYERLFTIAVQLVIDVIQTGNFRELERLLDPNVRVDINGQEFVGREELVHWMHKVIRRADHLEITLRDVELQGDKLVLDMELVERYDGKEYRTRIRVFAHKINGQWYIRTFEVR	1.51
DEEEHLSKEAVRLYIESLHTGDEDLWRSLMDPNARLHINGREFHGMERVLRILREIRIKDTRIRDFHVVNGQVHNRMELEIKVGDKERSFDVELIAYKIDGRWITKSVIHH	1.29
DEVKKETDEFSEKFRHALLTGDEEEIEKMADPHVKVDIDGREHHGREEWSEIYREWIHKRGVRIKHIRDHEVRIINGRAIIDQRVHGIVNGQETTLEMHFTTTKIDGRWILTEVFVK	1.42
DEDEKLSREAFRKLLEDRETGDEHMLTRNADPRARIEVNGVELHGREHAEKFWRHYHEKFKNIRINIEHHEIQGEKVIIRGILHVNGVNLTVEIHALKINGKWLNEEFSVK	0.129
SEQHEITEHIARIILEFLTTGDFTEFFKMLDPHVRITVGDKFNVGRHVFWHLWQELFDHIRIRHISLKHIHIVDGRLHLDTRVHGKVDGKETTLDQHIHIEIINGRITSVNLEYR	2.12
DEHDKETKEMLERFLEATETGNEKHSEELFDPRTRMEFDGVEIHGRETITKILTELWERADHIQFVLHDLRLVDGRVELDMRIRLHYDGQEYRRRSKVLLWKIDGRWVIRSERYE	1.99
SEDKKATNEASEIIIRLLKTGDEHLANHYIDPNVRMIFENRDVHGRETFEEWMRRVDHFHHYDVRHVHTQGDKINIDSEHNIHINGQEEIKDVYWISTKIDGKWILKSIEVR	1.28
SEEEKHWRKVINLLRRWHLTGDEHNLLELFDPNYRLHQGDKEIHGMELYIEIFERELKKVPNLKINFDSKHIEVQGEKARAETELDVNIDGRRIEFETRLYSIKFNGKWFVHSMEVK	0.553
DEHEKHDRELKRIWVELFETGDEDTLIELADPNPRSRVNGKEFHGMEDIVQFLREWKMRIKGVREEIHHVDVINGRVRIDMKRFVGDKEFDVTIHLYVINGRFKQEEVRVH	0.222
SEKEEDITRFITMWARYLVTGDEDRSRELLDPSVKMHIGEKNLIGREKLLEFVHRMWRRVDHIHIHFHTIDIQGDKLKVDFEIELRQGDKSDSIRTSMIVDKVDGRWILHKITME	1.74
HEEDEDAERAMRILVEWTKTGDEDKLRRNMDPNVKLWIDGQELHGRDSFKHLLTRFKNVKFEISDIRVLNHEEVVEIQLDTHLRIDGREHRVEIILIVIKVNGKWVMKLVEVRVR	2.12

Sequence	protease stability score
HENEEAAEHIFELFLDSLRTGDPDVVERLLDPHVKLDINGVEFHGREEAVHILMEEWKRLGIDHFEIKRIELRVYNGVVHIEIDSRTQVNGQKHHTKYRIIVIKINGRWHVNLLYIYIE	2.12
SEEEEENRKRVEFFKKVWETGDEHSMEELMDPNVRLRIVVNGRHEHYHGREEVVHILQDELRKIKNVKVNLKRIDVVDGRAHSDIHVDQGDWRMKMEVILIKVNGRWRMKELELHVI	1.78
EHLIEELREMTERIVETILTGDEKHLADLADPNTRSHTHIGDKHYRFHGMDLIYELLHQVKNMRLHLRHTDASFVGNKVYVRLHIDLIFNGRDIHFTIHIIIDKYNGKWFIHHIELIFN	1.31
HEWERLHHEAMEHFLRLQETGNEKTLQELADPDARLHYNGKDYHGRESMLKFWIELGVDHIHLHDFRIQGDKMEIHMDDHQGDKRLHTIIIHRKVNGQWHLQSEKIH	0.548
SEDEEAVHKMLEMWIKHINTGDERHLHKLADPNYRVEQGDKELHGRHAYEYVFHQFDHWKEIRIEEVKTYDGRVKIKGREVYHINGQEIESEVRIITTKVDGQWHLKSILFK	0.525
DEEEELARKYTEIYRHFMHTGDEDLNREFADPNTQILQGNKRFHGWKWYLEIVRRLGADHMEIHRVDVQGDKVHNDGRMIVNGKTLHFELIITKIDGRWVLREVRLG	1.4
HEHKEEVDELISMALESMHTGDEETWYRMADPHVRMDVNGQDIHGREEVSEIYVHWLREAGVKHIKIEDVKVINGRVDLHIFSKVNGRFFEYRLISEKIDGQWHIKSVRIL	0.399
DEEKNLIIELVHLFLVAFWTGNEELLRHLADPDVRFEIDGREHHGREELEKHLEHWWMKIEHIEEKEIRVIDGRVHIDGHVRGTLIINGRENRISYDVEIHAEVIDGRFKYVKVKQK	2.48
SEEEKEDWEWMEIFYDALHTGDEKLIRDNADPNVKFRQGDYHSVGREEYIRKIDELRRRLGITKIRLEIDHVEVINGRSNVDTTIHVNGREIRSTLHVQVVNGRIKEIEIHLR	1.04
DEDTHMMELFNKTLHHVERTGDETLLNKLMDPHARLEIGDKHNHGRENVERERRRLLKELGHTQVEFRIREIRFQGDKLTIHGHTLVNGVHFDIRLLVWKVDGRWHMESFHLE	1.46
SEEERETRKIFEDLLKTMETGDWRHLHRLIDPNARLIVNGQEFHGREDLIRLLEQLRIRSMRITDVRNQGNKSHVDGTVEGEWNGRTDNNRTEVHLVVVDGVLKHVEFHLH	1.47
DEDRKHWETLLKIAFHLFRTGDEEKWERMFDPHARLHINGKDIHGREDIVHFLQEHLDHLWIEDVKVERMSVYNGVLHVDIRIHYRQGDKVYDVESSIDNIVIDGKSHRIRFDFH	1.26
SEEDEMAEEMMRWFLEILETGNEELFNHYADPNVIDIVGDKRVHGMDRFSELHHIFLRHWRIHRRRENTIETYNGRAHIDGEIEGKVNGREKNIRVEIKLNVVNGVIKKVEVTYN	0.379
DEERVKQVQKKAFEAVMKGNDDEMRKIGKPNVRYEYIDEKNEGQEAVDVVIQLVKKVGAEAKVRRTEVKGDTVRAIFVYNDGDQTVQTKVEVKYEGDKVKEARVELTDEVQKVLHKG	-0.027
SEMEEVAVREWEILVKALRTGDERIISELMDPHARVDYNGRQLHGREEVKKFLEEIRIVTHHTEIKDHEYQGNKLIMHGHVDVENEYGDKTERIDTHIHIILRKVNGRWFITEIDIR	2.53
DEDEEQLKEMWREFLEASRTGDEHRIKELADPNARLRQGDKRFHGREEFSRLIVEMRIRHIEIRRIRVVGDKIEITTELHVIYNGQHIEVDTHVIILKVNGRWSLTEMEER	0.905
NEDEKLAEDAIQEYRHSVKTGDENFLKHLADPDVRMDYNGREYHGREEWEKFLRNILRHLRPKDFRIKHFDYYGDYMHFEGLHVGQINGKETHLHTEIIFLKINGRWHLRSIRIE	0.401
DEEDEHFEEVLRRTRHVWKTGDWRRLHELFDPNTRIHVNGRDVIGREEASRIIYEMLRQADHFHYRIRRFEIQGDKIHSEIEVIIIVNGRLIRLDTHVVAIKVNGRWVIESEEIR	1.48
DEDYENFERFLKEWSHSVLTGNEDRLMELADPHTRLNINGVDIHGREEVLKFEHEHLKRVKGATLRRVRVRHYSFVNGVAFVETEFDGHINGVDYRLETEMHIHKFNGVWRMKHIEKK	0.956
SEEKHYFDSMLEIWRHLMQTGDERLFSELFDPNALVLFNGRHDHGRDAFRWILLQLRIDHINVHLRDFRKQGNKIIIHSEIEVDFTVNGQRREDSHMQIIIFHKIDGRWYATSLEVQ	1.53
DEEEEEVRKLAHIHLHWLKTGDEEFEKKYADPHTKFRFNGRSSHGMEDFAEWVREIRIHDVIIRRVRVVNGVNEIDMEVDFEFDGKRIRSQTQILLFIYDGRIKSTEFTIR	0.805
DEDEKKLHKLSDELEHIWLTGDEDRWLELADPNTKVIINGKEVHGRENVAREIKKFLEDLGIDHFYIESSLAIDGRTDLNGQIHVNGRTLHVRIINHEFNGRVKRVEIHIR	2.09
SEEDKLAREIFEETIRILLTGDEEKLEELLDPRVRVHIHIGDKRIDLHGREEMSKWLHEIRIEHFHIDDLKVQGDKLHADTHEVVRIGDKRIETRTEWELVVVNGRLKELHIRVK	1.74
SEVEEEMEEILKKLLTAFRTGDEKTLEDLLDPHVRLEIGDKTHVGWRDIAEFLRRHIERVDHMRINIDHMEIQGEKIHIDGTLHFWIGDKRHHEKVHLIFVIVNGRLKKIHIHKI	2.64
DEDENIARHAMELYFKLFETGDFNTLSHLLDPNVRSNINGQTLHGRELMLKQFLDLWEHMGVDHIELKDSREHLVNGRVHRHFHGHLHVNGQTYEVHVRFIMVKVNGRWRHTSESISIR	1.1
